# In the DeepSol protein solubility set:
# Experiment: soluble on expression in E. coli; label from the status in PepcDB or PDB records
row,Sequence,soluble on expression in E. coli
1,MGSDKIHHHHHHASPKKVAPEKKGVETINRATAEAHIGFLACDELEGREAGWKGGRIAGNYIISCLKQMGIKPLDGDYIQPFDVYHAERQVKGKRWQVHPDSIAELKKVVYQKLALRNILGKIEGKNPNEIVIIGAHYDHIGYDPMLEGDQIYNGADDNASGVQAVLQVARAFLATGEQPERTVIFAFWDGEEKGLLGSRYFAMNYPDIKKVKGYLNYDMIGRNNREDQPDYFVYFYTAAHQAFGDWLKKDIEDYRLQLSPDYRAWDNPVGGSDNGTFAKLGIPIIWYHTDAHPDYHLPGDETQKINWLKIVDITKASFLAMWKLANEKKY,not soluble
2,MGSDKIHHHHHHATSKHVYGENENPYLKTNADAVVSTKAEFPISRLEAKTVKLTDYAEKFHTYLGMTVDETLAALSNGSVVFYPINISKNCWNRTAPTKGTNGWYYNTAGGVCDAASGIASIELDATKKELVLNVLETASVGTAISINVGFAINNGANFDDYVRFAFDVTVTDPGRIVVANTIPAGDYSAFSIEFADYQEVIESCLGLTLSEFITACKEPGGPIALYMVDSESGEWNTTSDYTAGGSGIGYWLTSNLKVTNWSDDGSTGSVLFVETQENGDMVNIGRNPASTSGSVFNVNFVYALKEDNSKFVEFIVKATLE,not soluble
3,MGSDKIHHHHHHCNNSNTKDNDKLFIGNGKFCQAKRLNGLGAIYDDDYIFFDCENQIYESYNYSNKKNDKKLNVNCRNSACSHNNDKCEAYVELGEYFVFNSKIYKYYNKSKVVSGENRLYGSIVEEESGKTVFKNSIPTDMSSELAIDDSEAILYVRVLSDDIIKVDGDRHAYLLDKNFNIIYCHYNIGKFPWGAILNGNYYYINDINEIVKVNLTTFESKSIASNGKAFMADNDENFIYYSNEFSELYKLSPDDESSIKIADNALFFSVQNKYIYASGGDNGNKIIYDKNGKIIADYSACVNMGADSAFQINDKIYTIFNGGVAYMDLDGKNYGEMMQ,not soluble
4,MGSDKIHHHHHHCWTYHYSEKPMNWENARKFCKQNYTDLVAIQNKREIEYLENTLPKSPYYYWIGIRKIGKMWTWVGTNKTLTKEAENWGAGEPNNKKSKEDCVEIYIKRERDSGKWNDDACHKRKAALCYTASCQPGSCNGRGECVETINNHTCICDAGYYGPQCQYVVQCEPLEAPELGTMDCIHPLGNFSFQSKCAFNCSEGRELLGTAETQCGASGNWSSPEPICQVVQCEPLEAPELGTMDCIHPLGNFSFQSKCAFNCSEGRELLGTAETQCGASGNWSSPEPICQETNRSFSKIKEGDYN,not soluble
5,MGSDKIHHHHHHDEEPKSSLTLDTYYKTSADIIGNVNYLYRDGAPDKMGNMTGAYRGSSLSVMNMVTGYFVNEYEGQEVDCSYARQLTRQNFTQSCCNYLTNDTWKGCYKSINVANAVIKYVDGVEMDGQAQYKAEARFFRALNYFYLVKMFGDVPMITEPTEDATLVEYPARTAASEVYKTVIIPDLQFAVENLPDATFAGNSHRVTKYAADMLLADVYMRLGEYANAITPLKDVINSGKFALATNDNLAEGSAFNKLRTTDDLPEVIYAREYDAAISPNGNIPVHAFNLISPTFFANSSTGNKYSLWVNVYGVSERYLNVYGEKDLRAQMNQFFHRTYTHPVDGTTLDMKMLCNWYWYDETAILETGKGTKDWNFYRYAETLLSAAEAIAQSSGVNAEAAGYLAQVKARANMEGKDVSTIASELQRLGKQAFIEECWKERLREFPLEMKIWDDCVRTGKFPQISATNKGEVQFVDLIGATNGSGAKFKETDLYWPIPVNEIQRNPNLTQNEGYSAK,not soluble
6,MGSDKIHHHHHHDLDGAITTPAAVELALNGIYYSLPGNGFNVIFPTVSGSFKAGTMWRQEIVSAGNAVYYSERMLPTLSFSDATEWDADYAVIKNANFLETACNRMSDGEFSGNRRAEVLGEIAYLRALAYFNILVRYCEFWDMNSEYGVVMRNEAPSVSNALKARSSVADSYQYILDQLEIAIEKAPDWKKLSQASKEAAKALKARVLLYAGKYTEAVAAVNDAIDTNSPLPEANYGDVFDKFSTTKEILFARVFDQKDATNTSTRQQCYGNSPTKKQGYWGPTNEYVELVGDDPRADAIFSKVDSLMDSRSSAVAYNLKSVKKLLNDANDMPVIFSRVSELYLIKAEALYRSGASISEAYAPIRKLRERAGAEIILPANNEELETAIFNEWMLELSFENWHEWFAMIRFAGYTEKPDFTRLLALNKTLREALEKEYEKSEAQGDNYYQRIIDRRIDAIPSSEISSNLECKQNPGY,not soluble
7,MGSDKIHHHHHHEDPRGKLTPENFFSTQDELNMSIYALYQKVNLSQVYTNMQLPQWQGDDITTNPGSNKQPAAEMDKFAAANNNKGVKDAWNMHYAIVKAANLIIQGASKTPTTQDEINIALGQAKFWRAYAYFTLVRLWGPLPMNLDNVNDDYTKPLSPVEEVYGHIVQDLTEAEAVLPTGYSGSPRFLNGVNVYVTRQAAKSTLAAVYMAMAGWPMNKTEYYAKAAEKAKEVIEGVNRGEYEYKLDKDYKDVYAMSNNYNNETVLGINYSPFVDWAQDSELTSCNQFESLGGWGDAWGEIRFWKEFPDGPRKDATYDPKIRLKDGTLVDWWELKEDGTPVVPEHHPMFSIFSVNWDPASKVNTSAPYDYTKPASQNMCNDHRHRIIRYSEVLLWYAEAKARTGQTDELAFKCLNDVRERAGLEPLTGLSADDLAEAAYKEHGWEVAGYWVALVTRRADQFRMNRLKDTFKERAENTAVEVADGILVKESVEYTNRTWSDNLMYLPYPDMDSQKNPNLVR,not soluble
8,MGSDKIHHHHHHEEPCPENGRVTFTVAQTRATQEGTFEKGNSIGVFAIEPKTGVYWATNNKYTYDGRAFKPATEEDNIIVTVGTDLDFYVYYPFKEGQTDITAISHAIGDQQEKSGWLSADFLTASYTDVIQDYTIPLHFEHRLSTVEVRVEGSDRVDGARMENVKYGSRFNLLTGKTVTDETRGSYAMYRYSSGNLTTVFRMTIPAQTLTTTSNYITLTGTPDMKLRGTSDMTTEPGRIHNYRIDYKIRITVLDYPQGGSTTGAGLYDMGSTCTVTASVNGGYEFAGWYEDGRIVSNDTRYSFEVLSDRTLEPRYRNYGGWSVTLTANPSVIGWQGGRSSLVAGASRGVFVNGVAENTQTAVPSLSGGAEGFLLSGNTVTVSENPSGSSRSCVFTASHGGSSATATITQEGSPVSYYFSYADGGTSHTEYPDDSSAGSFILDITSYKKTGNSTKALSWNASGDSWIHVNGSSVSYDENPAKERRTGLVTLKQDESGKTLSLKIVQPGKTSIDIEQ,not soluble
9,MGSDKIHHHHHHEETRTEVEKKNYMNNAEEAKDVLLGVYRTNTLDAMYGYYLSILFNLGTDISQVEGSGNENFRIIPTNSFPTTQSEVQQTWAALYTGIYRANDFLERISNKIGSYTTTDKKLATLYIAEARALRGMFYFELVRRFGNVVLMTSTQMSNQNPATYVQSAPEKVYEYIEDDLLYACDILPYATDDQYRESNDYRFSKGAALGLLTKVYATWAGYPVKDESKWEAAAKTARILVESGKHGLLKDYEQLWKNTCNGTWDPTESLIEISFYSPTVSGNSDPVGRIGKWNGVKTTAIAGVRGSCAANVKVVHTFVLDWREDVSDIRRDLSIANYQYTDTKKSLWVAGASDTDESAAEKDADPTKAQKNKQNYTPAKWDIQKYVTTNSFINNDKSNVNWYFLRYADVLLLYAEALNEWKHGPDAEAYNAINAVRRRGYGNPSNTSACDLPQGLDETSFREAVRKERSYELSFEGHRRQDLIRWGIYYKTVQATAKELGYWWEGTGSPNYSVATYTEEGKHELFPIPQRDMDLCIQFNQNPKW,not soluble
10,MGSDKIHHHHHHEEYFNAIRTNIQLSGVDIKVVGITSVKSNEGKSTTAASLAIAYARSGYKTVLVDADIRNSVMPGFFKPMTKITGLTDYLAGTTDLSQGLCDTDIPNLTVIESGKVSPNPTALLQSKSFENLLATLRRYYDYVIVDCPPLGLVIDAAIIAQKCDAMVAVVEAGNVKCSSLKKVKEQLEQTGTPFLGVILNKYDIATEKYGEYGNYGKKA,not soluble
11,MGSDKIHHHHHHENLYFQGMRDHVEIGIGREARRTYSLDDISVVSSRRTRSSKDVDTTWHIDAYKFDLPFMNHPSDALASPEFVIEMGKQGGLGVINAEGLWGRHADLDEAIAKVIAAYEEGDQAAATRTLQELHAAPLDTELLSERIAQVRDSGEIVAVRVSPQNVREIAPIVIKAGADLLVIQGTLISAEHVNTGGEALNLKEFIGSLDVPVIAGGVNDYTTALHMMRTGAVGIIVGGGENTNSLALGMEVSMATAIADVAAARRDYLDETGGRYVHIIADGSIENSGDVVKAIACGADAVVLGSPLARAEEAAGKGYFWPAVAAHPRFPRGVVTESVDLDEAAPSLEQILHGPSTMPWGVENFEGGLKRALAKCGYTDLKSFQKVSLHVN,soluble
12,MGSDKIHHHHHHENLYFQGMTLSITSNFDAGAIDVVSCERADAIRLRVRGDNRSEFAQWFYFRLTGARGERCVMTFENANDCAYPAGWRDYRAVASYDRVNWFRVPTSYDGQMLTIDHTPEFDSIHYAYFEPYSEERHSEFLGAVQQMPQASVVELGRTVEGRPMSLVVLGTPDEAGAAKKKVWIIARQHPGESMAEWFIEGLVKRLVGWGDWSGDPVARKLYDHATFYIVPNMNPDGSVHGNLRTNAAGANLNREWMEPDAERSPEVLVVRDAIHAIGCDLFFDIHGDEDLPYVFAAGSEMLPGFTEQQRVEQSAFIDSFKRASPDFQDEHGYPPGKYREDAFKLASKYIGHRFGCLSLTLEMPFKDNANLPDEHIGWNGARSASLGAAMLGAILEHVRAFA,soluble
13,MGSDKIHHHHHHEQDNSVSEKQVDVVYNDPRDPFEGFNRAMWDLNYNVLDRYIYRPVAHTYKDYVPSPVKSGLHNFVRNLEEPNALVNNTLQGKFGWAANAGGRFVVNSTIGLLGVVDVADMMGMHRKQDDFNEVLGYYGVPNGPYFMAPFFGPYVTRELASDWVDGLYFPLSELTMWQSVVKWGIKSLHVRTEAIDQERLLDNALDPYTFVKDAYLQHMDYKVYDGNVPSNQEDDELLDEYMQELE,not soluble
14,MGSDKIHHHHHHEQKTATSEMTDVSRLMPVKIKQTVKGQEEEMLIDTVKEANRKNIKFSIAGAQHSMGGHTYYEDGIVLDMTGYNKILSLDQEKKTIRVQSGATWNDIQKYVNPYGLAVKVMQSQNIFTIGGSLSANAHGRDIRYGSLIDTVKSFRLLKADGMIITVTPKDDLFTAVIGGYGLFGVILDVTLELTDDELYVMKTEKMNYSTYSDYFSKHVKGNPDVRMHLARISTAKKGFLKDMYVTNYVLANHQDQLSSYSELKEDEYTGATKFALGLSRRYEWGRNWLWDTQQSYFLSQNGTEISRNNVMRSESKFLEYENNDNTDVLQEYFVPVKEYGSYIDDLRQTLSDEDLNLLNITIRYVQKNEKADLSYAKDDMFSLVLLINEGFSKEDQADTARIIRRMTDVAIKHGGSYYLPYMTYQTKAQMRQAYPKSEAFFQKKRTYDPDERFMNYFYQRYK,not soluble
15,MGSDKIHHHHHHEYKNVNEIIVEELEIPVPLGDPFILLHNGTYYAYGTHSDEGIEVYISDNLKTWKYKGLALNKKDSWADRWFWAPEVYEVNGKFYMYYSADEHICVAVADSPVGPFIQNKQEPMIVEEKCIDNSFFMDDDGTPYLSFVRFNDGNNVWIAELEKDLITLKKETMRPCIHVSQAWEEVWPRVNEGSYILKHNGIYYMTYSANSYESPFYGVGCATATDIMGEWAKYDENPLLQNPGGLVGVGHSAMFTDKEGKLRIVFHAHKDKSNIHPRAMYIGTVNFENVNGTDRMRISKEYITPKLLQ,not soluble
16,MGSDKIHHHHHHFACKEETDLYFNGDITVIKSFDNDTLLSPVKVELEDIYDGSVLAYDSLLFFTSHKYSDCWMYVFSVNSGKHIASLCPKGQGPNDYLSCKNSQQFIRENGELKLWVRDNAKSARLLNITKSIETGATVCDAIIPMDWNKYFVYPATTLFFLKDGYILGQNQCEEQYSKGKEYIPRKFYLYKDSLGNKVKEYKLFNRPVILKDDKYDVLSGMFYANHSYIHPDQTKVAIAMQRVAQITILDVKSGKQVGYRMDDTLDFSDIEQNLECIRYYYTSAAVNSRYIFALYIDQAEMGGKYPFKSKTVHVFNWEGRPVYKIQLDKEISWITLDPQNNRLYAQGEDDSIWAYDVSWLSK,not soluble
